According to patent US12123009B2, “Methods and compositions for PPO herbicide tolerance in plants” (Monsanto Technology LLC, priority 2015, dated 2024):

Columns and labels:
[1] = test system: transgenic F1 maize expressing H_N10 (SEQ ID NO:4); assay: F1 maize greenhouse herbicide tolerance; type: in vivo; conditions: 40 grams/ha, V3, seven days
Protocol: The plants were treated with 40 grams/ha S-3100 at the V3 growth stage and injury ratings were taken seven days after treatment.

[2] = test system: soybean, non-transgenic or expressing H_N10 (SEQ ID NO: 4); assay: Green house S-3100 efficacy screen of R1 soybean; type: in vivo
Protocol: Single-copy transgenic R1 soybean plants in the greenhouse were sprayed with one of three herbicide application rates: Treatment 1 was 5 grams ai/ha S-3100 applied at V4 followed by (fb) R1; Treatment 2 was 10 grams ai/ha S-3100 applied at V4 fb R1; Treatment 3 was 30 grams ai/ha S-3100 applied at V4 fb R1. Crop Injury Percent at V2 (CIPV2) ratings were assessed ten days after treatment. Non-transgenic plants had average injury ratings of 89% to 100% and were not available for rating at the R1 growth stage.

soybean plantlets = assay: High-throughput soybean screening for herbicide tolerance (plantlets); type: in vivo, soybean (A3555); set-up: key: 0 for poor tolerance, high damage, low green coloration; 1 for some tolerance, average damage, moderate green coloration; 2 for good tolerance, low damage, high green coloration; conditions: S-3100 spray five weeks post-transformation, scored day four
How it was run: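 Soybean embryo explants (A3555) transformed via A. tumefaciens; at five weeks, plantlets sprayed with two passes of S-3100 (0.3 g in 5.0 mL crop oil concentrate plus 495 mL water). After four days with at least 15 h light daily, green coloration versus damage scored 0 (poor), 1 (some) or 2 (good tolerance).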

R0 soybean plants = assay: R0 transgenic soybean herbicide tolerance at eleven weeks; type: in vivo; conditions: R0 plants sprayed with S-3100 at eleven weeks, rated seven days after treatment

What does the source list for `CCOC(=O)COc1ncccc1Oc1cc(-n2c(=O)cc(C(F)(F)F)n(C)c2=O)c(F)cc1Cl` [S-3100, ethyl [3-2-chloro-4-fluoro-5-(1-methyl-6-trifluoromethyl-2,4-dioxo-1,2,3,4-tetrahydropyrimidin-3-yl)phenoxy]-2-pyridyloxylacetate]?
events producing highly tolerant plants (10% or less injury) ([1]; H_N10, construct 6, out of 18 events): 13 events; events producing highly tolerant plants (10% or less injury) ([1]; H_N10, construct 16): no events; % Injury R1 stage ([2]; H_N10, construct 1, 5 g/ha): 3%; % Injury V4 stage ([2]; H_N10, construct 1, 5 g/ha): 4.2%; % Injury R1 stage ([2]; H_N10, construct 1, 10 g/ha): 6.5%; % Injury V4 stage ([2]; H_N10, construct 1, 10 g/ha): 7.8%; % Injury R1 stage ([2]; H_N10, construct 1, 30 g/ha): 15.7%; % Injury V4 stage ([2]; H_N10, construct 1, 30 g/ha): 9.4%; % Injury V4 stage ([2]; Nontransgenic, 5 g/ha): 89%; % Injury V4 stage ([2]; Nontransgenic, 10 g/ha): 98%; % Injury V4 stage ([2]; Nontransgenic, 30 g/ha): 100%

B1: H_N90: microbial HemG protoporphyrinogen oxidase, SEQ ID NO:1 (SEQ ID NO:11 lacking start methionine; variants 18, 19) (protein, listed as Enterobacter cloacae)
chain: MKALVLYSTRDGQTHAIASYIASCMKEKAECDVIDLTHGEHVNLTQYDQVLIGASIRYGHFNAVLDKFIKRNVDQLNNMPSAFFCVNLTARKPEKRTPQTNPYVRKFLLATPWQPALCGVFAGALRYPRYRWIDKVMIQLIMRMTGGETDTSKEVEYTDWEQVKKFAEDFAKLSYKKAL
B1 was tested. Which coloration score (soybean plantlets; TP9) did it give?
Its coloration score is 1.

What about the coloration score (soybean plantlets; TP10) of the same molecule?
Its coloration score is 2.

And the coloration score (soybean plantlets; TP11)?
Its coloration score is 2.

And the coloration score (soybean plantlets; TP12)?
Its coloration score is 2.

What about the coloration score (soybean plantlets; TP13) of the same molecule?
The coloration score was 2.

And the coloration score (soybean plantlets; TP14)?
The coloration score was 2.

What about the coloration score (soybean plantlets; TP15) of the same molecule?
Its coloration score is 2.

And the coloration score (soybean plantlets; TP16)?
The coloration score was 1.

And the coloration score (soybean plantlets; TP17)?
Its coloration score is 2.

What about the coloration score (soybean plantlets; TP18) of the same molecule?
Its coloration score is 2.

And the coloration score (soybean plantlets; TP19)?
Its coloration score is 1.

What about the coloration score (soybean plantlets; TP20) of the same molecule?
Its coloration score is 2.

And the coloration score (soybean plantlets; TP21)?
The coloration score was 1.

And the coloration score (soybean plantlets; TP22)?
Its coloration score is 2.

What about the coloration score (soybean plantlets; TP23) of the same molecule?
The coloration score was 1.

What about the coloration score (soybean plantlets; TP24) of the same molecule?
The coloration score was 1.

And the coloration score (soybean plantlets; TP25)?
The coloration score was 1.

What about the coloration score (soybean plantlets; TP26) of the same molecule?
The coloration score was 0.

And the coloration score (soybean plantlets; TP27)?
Its coloration score is 1.

And the coloration score (soybean plantlets; TP28)?
The coloration score was 2.

What about the coloration score (soybean plantlets; TP29) of the same molecule?
The coloration score was 1.

What about the coloration score (soybean plantlets; TP30) of the same molecule?
Its coloration score is 1.

What about the coloration score (soybean plantlets; TP31) of the same molecule?
Its coloration score is 0.

What about the coloration score (soybean plantlets; TP32) of the same molecule?
Its coloration score is 0.

What about the coloration score (soybean plantlets; TP33) of the same molecule?
Its coloration score is 2.

And the coloration score (soybean plantlets; TP34)?
The coloration score was 2.

And the coloration score (soybean plantlets; TP35)?
Its coloration score is 1.

What about the coloration score (soybean plantlets; TP36) of the same molecule?
Its coloration score is 2.

And the percent injury score (R0 soybean plants; TP1)?
The percent injury score was 3%.

And the percent injury score (R0 soybean plants; TP9)?
The percent injury score was 30%.

And the percent injury score (R0 soybean plants; TP10)?
The percent injury score was 30%.

And the percent injury score (R0 soybean plants; TP11)?
The percent injury score was 30%.

And the percent injury score (R0 soybean plants; TP12)?
Its percent injury score is 30%.

And the percent injury score (R0 soybean plants; TP13)?
The percent injury score was 15%.

What about the percent injury score (R0 soybean plants; TP14) of the same molecule?
Its percent injury score is 25%.

And the percent injury score (R0 soybean plants; TP15)?
The percent injury score was 35%.

What about the percent injury score (R0 soybean plants; TP16) of the same molecule?
Its percent injury score is 35%.

What about the percent injury score (R0 soybean plants; TP17) of the same molecule?
Its percent injury score is 15%.

And the percent injury score (R0 soybean plants; TP18)?
Its percent injury score is 30%.

What about the percent injury score (R0 soybean plants; TP20) of the same molecule?
Its percent injury score is 5%.

And the percent injury score (R0 soybean plants; TP21)?
The percent injury score was 25%.

What about the percent injury score (R0 soybean plants; TP22) of the same molecule?
The percent injury score was 30%.

What about the percent injury score (R0 soybean plants; TP23) of the same molecule?
The percent injury score was 30%.

What about the percent injury score (R0 soybean plants; TP26) of the same molecule?
Its percent injury score is 40%.

And the percent injury score (R0 soybean plants; TP27)?
Its percent injury score is 35%.

And the percent injury score (R0 soybean plants; TP28)?
Its percent injury score is 30%.

What about the percent injury score (R0 soybean plants; TP32) of the same molecule?
Its percent injury score is 50%.

And the percent injury score (R0 soybean plants; TP33)?
The percent injury score was 25%.

What about the percent injury score (R0 soybean plants; TP34) of the same molecule?
Its percent injury score is 35%.

And the percent injury score (R0 soybean plants; TP35)?
The percent injury score was 15%.

What about the percent injury score (R0 soybean plants; TP36) of the same molecule?
The percent injury score was 15%.
